T1: mouse VEGF (WBP325-mPro1, Sino Biological, 50159-MNAB) (mouse, UniProt Q00731-2 27-190)
T1 construct: Bought protein
T1 sequence (looked up): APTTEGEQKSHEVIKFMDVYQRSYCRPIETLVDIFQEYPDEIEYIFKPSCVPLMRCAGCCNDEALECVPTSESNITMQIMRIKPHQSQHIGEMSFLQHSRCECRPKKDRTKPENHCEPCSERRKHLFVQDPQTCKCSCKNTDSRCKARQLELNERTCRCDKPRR


Experiments:
[1] = target: T2, mouse PD-L1 on 293F cells (WBP315.293F.mPro1.C1) (mouse, UniProt Q9EP73 19-290); assay: FACS on mouse PD-L1 expressing 293F cells, FITC anti-human IgG
T2 construct: whole, on cells; also called engineered mouse PD-L1 expressing cells
Description: Engineered mouse PD-L1 expressing cells (WBP315.293F.mPro1.C1) were seeded at 1×10⁵ cells/well in U-bottom 96-well plates. Serial dilutions of the different antibodies were added to the cells. Plates were incubated at 4° C. for 1 hour. After wash, FITC-labeled goat anti-human IgG (Jackson ImmunoResearch, 109-095-008) was added to each well and the plates were incubated at 4° C. for 1 hour. […] UIgG1 onto the cells was tested by flow cytometry and the mean fluorescence intensity (MFI) was analyzed by FlowJo.

[2] = target: T3, human PD-L1 on CHO-K1 cells (WBP315.CHO-K1.hPro1.C11) (human, UniProt Q9NZQ7 19-290); assay: FACS on human PD-L1 expressing CHO-K1 cells, FITC anti-human IgG
T3 construct: whole, on cells; also called engineered human PD-L1 expressing cells
Description: (§1) Engineered human PD-L1 expressing cells (WBP315.CHO-K1.hPro1.C11) were seeded at 1×10⁵ cells/well in U-bottom 96-well plates. […] UIgG1 was added to the cells. Plates were incubated at 4° C. for 1 hour. After wash, FITC-labeled goat anti-human IgG (Jackson ImmunoResearch, 109-095-008) was added to each well and the plates were incubated at 4° C. for 1 hour. The binding of the antibodies onto the cells was tested by flow cytometry and the mean fluorescence intensity (MFI) was analyzed by FlowJo.

[3] = target: T4, cynomolgus monkey PD-L1 on 293F cells (WBP315.293F.cPro1.2A) (cynomolgus monkey, UniProt G7PSE7 19-290); assay: FACS on cynomolgus PD-L1 expressing 293F cells, FITC anti-human IgG
T4 construct: also called cynomolgus PD-L1; cyno PD-L1
Description: as §1, with “Engineered cynomolgus monkey” for “Engineered human”, “cells (WBP315.293F.cPro1.2A)” for “cells (WBP315.CHO-K1.hPro1.C11)”

[4] = target: T5, human PD-L1 extracellular domain, his tag (W315-hPro1.ECD.his) (human, UniProt Q9NZQ7 19-238); assay: SPR (Biacore T200), antibody captured on anti-human Fc, antigen as analyte, 25 °C
T5 construct: extracellular domain; Analyte in SPR; also called W315-hPro1.ECD.his (PD-L1); ECD of PD-L1; not shown: C-terminal his tag (6xhis)
Description: Biacore T200, Series S Sensor Chip CM5, Amine Coupling Kit, and 10×HBS-EP were purchased from GE Healthcare. The antibody was captured onto the anti-human Fc IgG (Jackson, 109-005-098) surface immobilized on CM5-biosensor chip (GE Healthcare Inc.). The assay was performed at 25° C. with HBS-EP+ buffer (GE Healthcare Inc.) as running and dilution buffer. Serially diluted PD-L1 antigen or VEGF antigen (W315-hPro1.ECD.his or W325-hPro1.his) and running buffer were injected for an association phase and followed dissociation phase detection. Regeneration of the chip surface was reached by an injection of 10 mM Glycine, pH 1.5.
The on-rate constant (ka) and off-rate constant (kd) were also measured in the mean time. Final data of each interaction was deducted from reference channel and buffer channel data.

[5] = target: T1, mouse VEGF (WBP325-mPro1, Sino …); assay: ELISA, plate coated with mouse VEGF, detection with anti-human IgG Fc-HRP
[6] = target: T2, mouse PD-L1 on 293F cells …; assay: FACS competition on mouse PD-L1 expressing cells: antibody premixed with mouse Fc tagged murine PD-1 at 5 ug/ml, PE anti-mouse IgG; blocked ligand mouse PD-1
Description: (§2) Mouse PD-L1 expressing […] (WBP315.293F.mPro1.C1) were seeded at 1×10⁵ cells/well in 96-well U-bottom plates. […] After washing, PE-labeled anti-mouse IgG was added and incubated with cells at 4° C. for 1 hour. Cells were washed twice and MFI of the cells was measured by a flow cytometer and analyzed by FlowJo.

[7] = target: T3, human PD-L1 on CHO-K1 cells …; assay: FACS competition on human PD-L1 expressing CHO-K1 cells: antibody premixed with mouse Fc tagged human PD-1 at 5 ug/ml, PE anti-mouse IgG; blocked ligand human PD-1
Description: as §2, with “Human” for “Mouse”, “(WBP315.CHO-K1.hPro1.C11)” for “(WBP315.293F.mPro1.C1)”, “45 minutes.” for “1 hour.”

[8] = target: T6, human PD-L1 extracellular domain, mouse Fc (PD-L1.ECD.mFc, W3153-hPro1.ECD.mFc) (human, UniProt Q9NZQ7 19-238); assay: dual binding ELISA: plate coated with human VEGF, antibody titrated, then biotinylated PD-L1.ECD.mFc at 0.5 ug/ml
T6 construct: extracellular domain; also called WBP315-hPro1.ECD.mFc; antigen-2; not shown: mouse Fc tag at the C-terminus
T6 sequence (Q9NZQ7 19-238): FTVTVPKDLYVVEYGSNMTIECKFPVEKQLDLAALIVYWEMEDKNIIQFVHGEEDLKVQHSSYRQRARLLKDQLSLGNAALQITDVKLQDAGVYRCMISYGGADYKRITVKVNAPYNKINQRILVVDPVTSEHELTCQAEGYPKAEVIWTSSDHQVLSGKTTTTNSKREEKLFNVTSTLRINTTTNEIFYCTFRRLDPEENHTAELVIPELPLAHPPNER

T5 sequence (Q9NZQ7 19-238): as above
T3 sequence (Q9NZQ7 19-290): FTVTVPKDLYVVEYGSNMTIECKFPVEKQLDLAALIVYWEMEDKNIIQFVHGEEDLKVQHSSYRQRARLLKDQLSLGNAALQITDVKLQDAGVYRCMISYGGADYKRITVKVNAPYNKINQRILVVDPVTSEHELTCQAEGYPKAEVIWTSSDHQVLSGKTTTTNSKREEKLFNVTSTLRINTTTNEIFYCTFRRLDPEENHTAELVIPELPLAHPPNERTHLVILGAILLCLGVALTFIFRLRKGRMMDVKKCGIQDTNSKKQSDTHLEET
T2 sequence (Q9EP73 19-290): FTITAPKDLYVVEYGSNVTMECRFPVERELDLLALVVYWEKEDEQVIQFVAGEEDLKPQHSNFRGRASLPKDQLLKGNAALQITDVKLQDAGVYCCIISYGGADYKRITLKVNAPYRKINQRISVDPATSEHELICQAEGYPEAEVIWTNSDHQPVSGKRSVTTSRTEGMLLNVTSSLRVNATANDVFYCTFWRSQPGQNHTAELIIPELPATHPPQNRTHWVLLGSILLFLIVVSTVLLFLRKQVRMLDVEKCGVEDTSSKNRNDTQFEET
T4 sequence (G7PSE7 entry or part of it limits assumed): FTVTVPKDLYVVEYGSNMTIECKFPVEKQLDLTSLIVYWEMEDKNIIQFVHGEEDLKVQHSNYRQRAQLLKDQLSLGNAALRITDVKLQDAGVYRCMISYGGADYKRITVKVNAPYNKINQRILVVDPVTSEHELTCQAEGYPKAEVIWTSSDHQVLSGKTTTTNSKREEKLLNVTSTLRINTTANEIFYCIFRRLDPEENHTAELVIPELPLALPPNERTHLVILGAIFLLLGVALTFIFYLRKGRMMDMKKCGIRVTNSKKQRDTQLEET

| Binder | EC50 (read off the curve) [1] [nM] | EC50 (read off the curve) [2] [nM] | EC50 (read off the curve) [3] [nM] | Kd [4] [nM] | koff [4] [s⁻¹] | kon [4] [M⁻¹ s⁻¹] | binding result [5] | IC50 (read off the curve) [6] [nM] | IC50 (read off the curve) [7] [nM] | binding result [8] |
| --- | --- | --- | --- | --- | --- | --- | --- | --- | --- | --- |
| W3156-AP3R2-1A3-z12-hIgG1 (Fc fusion, VHH in hIgG1 format as tested; The construction of the hIgG1 format is not described; also called anti-PD-L1 VHH antibody; parental anti-PD-L1 antibody; not shown: human IgG1 part (hIgG1) named in the label only) EVQLVESGGGLVQPGGSLRLSCAASGHFSNLAVNWFRQAPGKERELVAGILWSGGSTFYADSVKGRFTISRGNAENMLYLQMNSLRAEDTAVYYCNTGTNWGQGTLVTVSS | ~2 | ~0.05 | ~2 | 0.16 | 0.000291 | 1.82e+06 | no binding (tested: 100 nM) | ~2 | ~0.04 |  |
| WBP325-BMK3.uIgG1 (Bevacizumab) (antibody, V domains shown, also called W325-BMK3.uIgG1; W325-BMK3) VH: EVQLVESGGGLVQPGGSLRLSCAASGYTFTNYGMNWVRQAPGKGLEWVGWINTYTGEPTYAADFKRRFTFSLDTSKSTAYLQMNSLRAEDTAVYYCAKYPHYYGSSHWYFDVWGQGTLVTVSS VL: DIQMTQSPSSLSASVGDRVTITCSASQDISNYLNWYQQKPGKAPKVLIYFTSSLHSGVPSRFSGSGSGTDFTLTISSLQPEDFATYYCQQYSTVPWTFGQGTKVEIK |  |  |  |  |  |  |  |  |  | no binding (tested: 100 nM) |
